In IntAct's records for PubMed 22841714:

B1: ADP-ribosylation factor 6 (Mus musculus), P62331 (parent)
chain: MGKVLSKIFGNKEMRILMLGLDAAGKTTILYKLKLGQSVTTIPTVGFNVETVTYKNVKFNVWDVGGQDKIRPLWRHYYTGTQGLIFVVDCADRDRIDEARQELHRIINDREMRDAIILIFANKQDLPDAMKPHEIQEKLGLTRIRDRNWYVQPSCATSGDGLYEGLTWLTSNYKS
partner: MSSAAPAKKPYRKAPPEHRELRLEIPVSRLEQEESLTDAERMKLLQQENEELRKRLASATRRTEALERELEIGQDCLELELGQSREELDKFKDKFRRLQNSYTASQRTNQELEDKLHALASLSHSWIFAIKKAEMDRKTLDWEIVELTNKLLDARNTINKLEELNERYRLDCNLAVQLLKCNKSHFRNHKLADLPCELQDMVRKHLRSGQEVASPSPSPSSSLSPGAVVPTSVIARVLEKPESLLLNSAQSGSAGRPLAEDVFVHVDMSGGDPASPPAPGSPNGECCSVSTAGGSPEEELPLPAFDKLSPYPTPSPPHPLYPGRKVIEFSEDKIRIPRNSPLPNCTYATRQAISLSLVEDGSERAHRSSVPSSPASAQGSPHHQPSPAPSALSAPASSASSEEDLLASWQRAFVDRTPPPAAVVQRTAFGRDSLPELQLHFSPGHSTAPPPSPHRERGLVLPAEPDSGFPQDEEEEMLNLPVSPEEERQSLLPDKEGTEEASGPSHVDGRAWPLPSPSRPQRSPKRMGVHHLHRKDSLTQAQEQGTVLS

Variants of: B1
Details: with tjap1_mouse Tjap1, Q9DCD5

| effect of a mutation on the interaction | Variant |
| --- | --- |
| disrupting interaction | T44N |
